Bridge positions count the residues as written; N and C are the ends. Ends that are not written are not given here. Peptide text beside a SMILES is read from it.
What was measured:
[1] = target: QTGG (Homo sapiens, UniProt P63165); assay: Isothermal titration calorimetry; type: binding
[2] = target: DV12 ([…]) (Homo sapiens, UniProt P63165); assay: Biolayer interferometry; type: binding
[3] = target: T1, QTGG, short SUMO-1 remnant after trypsin and Glu-C digestion; assay: ITC
T1 sequence (peptide): QTGG

[4] = target: SUMO-1 protein (UniProt P63165 1-97); assay: BLI
Sequence of SUMO-1 protein (P63165 1-97): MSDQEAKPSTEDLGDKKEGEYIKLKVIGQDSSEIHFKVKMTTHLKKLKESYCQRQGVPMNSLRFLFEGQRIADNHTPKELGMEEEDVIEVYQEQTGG

Molecule: CC(C)C[C@@H]1NC(=O)[C@H](Cc2c[nH]c3ccccc23)NC(=O)[C@H](CCCCN)NC(=O)[C@H](CCC(=O)O)NC(=O)[C@@H]2CCCN2C(=O)[C@@H](N)CSSC[C@@H](C(=O)O)NC(=O)[C@H]([C@@H](C)O)NC(=O)CNC1=O [CP-1, CPEKWLGTC] (HELM PEPTIDE1{C.P.E.K.W.L.G.T.C}$PEPTIDE1,PEPTIDE1,1:R3-9:R3$$$V2.0; N-terminus and C-terminus assumed)
- Kd [1]: 71.8 nM

Molecule: CC(C)C[C@H](NC(=O)[C@@H](N)CCCCN)C(=O)N[C@@H](CCCNC(=N)N)C(=O)N[C@@H](Cc1c[nH]c2ccccc12)C(=O)N[C@H](C(=O)N[C@@H](CC(=O)O)C(=O)N[C@@H](Cc1ccc(O)cc1)C(=O)N[C@@H](C)C(=O)N[C@@H](CCCCN)C(=O)N[C@@H](CCCCN)C(=O)N[C@@H](CCCNC(=N)N)C(=O)N[C@@H](CCCCN)C(=O)O)[C@@H](C)O [PEP-4, KLRWTDYAKKRK] (H-KLRWTDYAKKRK-OH)
- Kd [2]: 2 nM

Molecule: CPEKWLGTC (disulfide 1-9) [CP-1 (…), cystine-linked cyclic peptide]
- Kd [3]: 71.8 nM

Molecule: CMTPNPTTC (disulfide 1-9) [CP-2 (…)]
- Kd [3]: 1800 nM

Molecule: KLRWTDYAKKRK [PEP-4 (KLRWTDYAKKRK)]
- Kd [4]: 43.7 nM

Reference: article PMC11712212 (Chemical Science, 2024)
